The data set concerns the molecule itself. The data set can be described thus: cryo-EM structure.

B1: full-length human excitatory amino acid transporter 3 with two potential glycosylation sites mutated (N178T and N195T) (natural protein, UniProt P43005 1-524, looked up)
chain: MGKPARKGCEWKRFLKNNWVLLSTVAAVVLGITTGVLVREHSNLSTLEKFYFAFPGEILMRMLKLIILPLIISSMITGVAALDSNVSGKIGLRAVVYYFCTTLIAVILGIVLVVSIKPGVTQKVGEIARTGSTPEVSTVDAMLDLIRNMFPENLVQACFQQYKTKREEVKPPSDPEMTMTEESFTAVMTTAISKTKTKEYKIVGMYSDGINVLGLIVFCLVFGLVIGKMGEKGQILVDFFNALSDATMKIVQIIMCYMPLGILFLIAGKIIEVEDWEIFRKLGLYMATVLTGLAIHSIVILPLIYFIVVRKNPFRFAMGMAQALLTALMISSSSATLPVTFRCAEENNQVDKRITRFVLPVGATINMDGTALYEAVAAVFIAQLNDLDLGIGQIITISITATSASIGAAGVPQAGLVTMVIVLSAVGLPAEDVTLIIAVDWLLDRFRTMVNVLGDAFGTGIVEKLSKKELEQMDVSSEVNIVNPFALESTILDNEDSDTKKSYVNGGFAVDKSDTISFTQTSQF
In the case of B1, the stoichiometry N (commonly a count of units in the complex or per binding partner) turned out to be 3.

Source of the values: publication doi:10.1101/2020.06.01.127704 (bioRxiv, 2020).
